Measurements from patent US20030032157A1, “Polypeptides interactive with Bcl-XL” (priority 2001, published 2003).

Target: T1, human Bcl-XL-GST fusion protein (human, UniProt P08515 1-218 = GST; Q07817 1-211)
T1 construct: Made in E. coli, immobilized on glutathione Sepharose beads; whole entry named; also called Bcl-XL-glutathione S-transferase (GST) fusion protein; GST-BCL-XL
Experiment: mRNA display selection on immobilized Bcl-XL-GST
Method: Detection of a polypeptide binding to a Bcl-XL-glutathione S-transferase (GST) fusion protein was carried out as follows. Twenty microliters of glutathione Sepharose 4B slurry (AP Biotech) was aliquoted to a microcentrifuge tube and washed with PBS. The Bcl-XL-GST fusion protein (60 μg), prepared as describe above, was added and allowed to bind to the Sepharose beads for 1 hr at 4° C. The beads were then re-washed in selection buffer (50 mM Tris-HCL pH 7.5, 150 mM KCl, 0.05% Triton X-100, 0.5 mg/ml BSA, and 0.1 mg/ml salmon sperm DNA). The Bcl-XL-GST beads were resuspended in 100 μl of selection buffer (approximately 11.5 μM Bcl-XL) and ³⁵S-labeled mRNA display construct or free peptide was added (approximately 10-60 nM) and incubated on a rotator for 1 hr at 4° C. The reaction was then transferred to a microcentrifuge column (BioRad) and unbound mRNA display constructs or free peptides were removed by a 10 sec spin at 1,000 rpm. The Sepharose beads were then washed three times with 500 μl of selection buffer. The extent of binding between the Bcl-XL-GST fusion protein and the mRNA display constructs or free peptides was determined by scintillation counting each fraction, including the recovered beads.
A human Bcl-XL-GST fusion protein was immobilized on Sepharose beads as described above for the binding assay and incubated with the mRNA display library. For the first round of selection, the input was approximately 0.06 pmol of each of the four source labeled libraries from human tissues (kidney, liver, bone marrow, and brain), which were mixed prior to selection. For subsequent rounds of selection, the input of each of the four source labeled libraries ranged from 0.25 to 0.92 pmol in total. After washing the beads of any unbound nucleic acid-protein fusion library members, the cDNA strand of the bound fusions were recovered in three elutions with 100 μl of 0.1N KOH. Eluates were subsequently neutralized by the addition of 2 μl of 1N Tris-HCL pH 7 and 8 μl of 1N HCL. A small scale PCR optimization was performed with the eluate to determine the number of cycles required to produce a strong signal without overamplification (typically 18-28 cycles). The library was then regenerated by PCR using the remainder of the eluate.

T1 sequence (P08515 1-218, tags or fused parts left off): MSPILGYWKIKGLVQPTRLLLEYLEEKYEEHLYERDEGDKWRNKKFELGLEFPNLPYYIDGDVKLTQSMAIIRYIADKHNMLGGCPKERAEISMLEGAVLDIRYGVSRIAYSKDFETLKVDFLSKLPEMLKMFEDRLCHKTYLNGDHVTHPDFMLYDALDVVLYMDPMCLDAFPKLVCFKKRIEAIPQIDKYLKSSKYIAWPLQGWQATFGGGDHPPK

Binder	binding result
RGAVFSQDKDVVQEATKVLRNAADNFYINDR (mRNA display clone from a known polypeptide) [SEQ ID NO 13]	binds
SGLRKPTCGSSQR (Selected clone derived from the 3' UTR of the parent mRNA; not further characterized) [L-plastin cluster polypeptide]	binds
SNELTRAVEELHKLLKEARE (mRNA display clone from a known polypeptide) [SEQ ID NO 15]	binds
AGVFSAEPSPFPQTRRSMVFARHLREVGDEFRSRHLNSTDDADE (mRNA display clone from a hypothetical or unknown polypeptide) [SEQ ID NO 29]	binds
GQGTLWGSGMEAWLATVLKALPWHPTYQLEP [SEQ ID NO 59]	binds
IAQATKATIDKWNCIKLKIFYTSKKEAS [SEQ ID NO 60]	binds
MRDLPGHYYETLKFLVGHLKTIADHR (mRNA display clone from a hypothetical or unknown polypeptide) [SEQ ID NO 31]	binds
LRLNTTVWPTIITPILLTLFLITNRLITTR (mRNA display clone from a known polypeptide) [SEQ ID NO 27]	binds
VVDVPDFIVWLEEAVSDLHRAL [SEQ ID NO 61]	binds
RAPRFIKQILLDLKREIDFNVRLVEYFNPLS (mRNA display clone from a hypothetical or unknown polypeptide) [SEQ ID NO 43]	binds
HAVVARLLHIGAIMFQRLDFIEQLSAPPA [SEQ ID NO 58]	binds
ARGDFAQAAQQLWLALRALGRPLPTSH (mRNA display clone from a known polypeptide) [SEQ ID NO 22]	binds
FVRSVGWRLQNIGDDMDHAICGHDVRLG (Selected clone with insert in reversed orientation relative to the parent mRNA; not further characterized) [transforming growth factor cluster polypeptide]	binds
GFLAAEQDIREEIRKVVQSLEQTAREVLTLLQG (mRNA display clone from a known polypeptide) [SEQ ID NO 24]	binds
EQASVKYVILDMYRALLTLMNTSTAT [SEQ ID NO 55]	binds
LFTILLTLWTMRCSSTPSG (mRNA display clone from a known polypeptide) [SEQ ID NO 17]	binds
EDLESVLIRLINWAKGSPIP [SEQ ID NO 56]	binds
TLYLKLTALAVTFLGLLTALDLNYPT (mRNA display clone from a known polypeptide) [SEQ ID NO 28]	binds
QRRGNEFQLRDLADAWDLSSRSRQRGWQMPNCRSRRGPG [SEQ ID NO 62]	binds
GSSKDLAKHIQVVCDGMDLTPKIHDLKPQC (mRNA display clone from a known polypeptide) [SEQ ID NO 23]	binds
LFSVLLRYLADNFLPGGS (mRNA display clone from a hypothetical or unknown polypeptide) [SEQ ID NO 48]	binds
VSCWPSYLKYPLSTASASLLATQLKSIA (Selected clone translated from the incorrect reading frame; not further characterized) [UDP glucoronosyl transferase 2B4 precursor cluster polypeptide]	binds
GVSEAEGTFPLSTFLLGIASRLRSVA (mRNA display clone from a hypothetical or unknown polypeptide) [SEQ ID NO 42]	binds
ATWMKTLQGLLDRIQAFPSSPH (Selected clone derived from the 3' UTR of the parent mRNA; not further characterized) [lysosomal pepstatin insensitive protease cluster polypeptide]	binds
MDTIKGFDLITNFQVVADALNISLLPNPLATA (Selected clone derived from the 3' UTR of the parent mRNA; not further characterized) [K-ras oncogene cluster polypeptide]	binds
TYWNLLPPKRPIKEVLTDIFAKVLEKGWVDSRS (mRNA display clone from a known polypeptide) [SEQ ID NO 16]	binds

Binder	binding result
MAVIINELSQRDSCGPLKISLNNKILVYGNLFSSFTP (mRNA display clone from a hypothetical or unknown polypeptide) [SEQ ID NO 38]	binds
TSTLPHIRRTR (mRNA display clone from a hypothetical or unknown polypeptide) [SEQ ID NO 34]	binds
GLAKKSKRNPANLTPP (mRNA display clone from a hypothetical or unknown polypeptide) [SEQ ID NO 39]	binds
CREQAELTGLRLASLGLKFNKIVHSSMTRAIET [SEQ ID NO 53]	binds
RTLQPRLLQNQQQHLPALPIWFLLQWLRLHPL (mRNA display clone from a hypothetical or unknown polypeptide) [clone w75]	binds
LALAYYSSRQYASALKHIAEIIERGIRQH (mRNA display clone from a hypothetical or unknown polypeptide) [SEQ ID NO 45]	binds
SSQALRIHQWLHLFSDFTST (mRNA display clone from a hypothetical or unknown polypeptide) [SEQ ID NO 40]	binds
GLREESEEYMAAADEYNRLKQVKQPA (mRNA display clone from a known polypeptide) [SEQ ID NO 19]	binds
GLKLATVAASMDRVPKVTPSSAISSIARENHEPERLGLNGIAETT (mRNA display clone from a hypothetical or unknown polypeptide) [SEQ ID NO 30]	binds
AGTQPLILAQFMRVGGDELLHFLLW (Selected clone with insert in reversed orientation relative to the parent mRNA; not further characterized) [arsenate resistance protein cluster polypeptide]	binds
VHNFGRHWGLPLSFLLNYPLFLSP [SEQ ID NO 51]	binds
CGGRMEDIPCSRVGHIYRKYVPYKVPAGVSLARNLKRVADWM (mRNA display clone from a hypothetical or unknown polypeptide) [SEQ ID NO 32]	binds
WERIEERLAYIADHLGFSWTELARAL (mRNA display clone from a known polypeptide) [SEQ ID NO 21]	binds
AAMLLDRRGTECDLWINEMSLLHKIVQDVYGTPHPPHS (mRNA display clone from a hypothetical or unknown polypeptide) [SEQ ID NO 46]	binds
EANRKQPKPNNSSTAYYNFTGVSILPSYKP (Selected clone derived from the 3' UTR of the parent mRNA; not further characterized) [MYBPC3 cluster polypeptide]	binds
DWQVLLGKLLWKIDNPGI (mRNA display clone from a hypothetical or unknown polypeptide) [SEQ ID NO 49]	binds
GAMEREWAMFLRAASSRIRGGV (mRNA display clone from a hypothetical or unknown polypeptide) [SEQ ID NO 50]	binds
GTRISDMLKLIADTWQRNCCPA [SEQ ID NO 54]	binds
ASMAPVGRDAETLQKQKETIKAFLKKLEALMASNDNANKT [SEQ ID NO 52]	binds
TGTGAPRFIKEVQELNSALHQSDLIDIYRTLHP (mRNA display clone from a known polypeptide) [SEQ ID NO 14]	binds
ILTSPWTTSSGLWPRLQKAAEAFKQLNQP (mRNA display clone from a hypothetical or unknown polypeptide) [SEQ ID NO 36]	binds
GSLTHHINNIKPSSTR (Selected clone translated from the incorrect reading frame; not further characterized) [cDNA FLJ20617 cluster polypeptide]	binds
AGEDMEISVKELRTILNRIISKHKDLRT (mRNA display clone from a known polypeptide) [SEQ ID NO 18]	binds
PWQYKPIADLYRGRESRPSAPR (mRNA display clone from a hypothetical or unknown polypeptide) [SEQ ID NO 47]	binds
ANLLLLMVPILIAMAFLMLTERKILGYIQPR (mRNA display clone from a known polypeptide) [SEQ ID NO 26]	binds
RPVSFCGAVWTLNRAIGRHFVRGSR [SEQ ID NO 57]	binds
